The target of assay [1] is AF488-αBc_(C176) (human alphaB-crystallin with an additional C-terminal cysteine, labelled with Alexa Fluor 488) (human). Put plainly: single-molecule TIRF with photobleaching step analysis; αBcC176 in the absence of CLIC1C24, with or without cross-linking, diluted for TIRF microscopy; size of the oligomers.
Assay [2] has as its target AF647-CLIC1C24 (CLIC1 W23F, C59A, C89A, C178A, C191A, C223A, labelled with Alexa Fluor 647 at C24) (UniProt O00299). Put plainly: two-colour single-molecule TIRF colocalisation with photobleaching step analysis; AF647-CLIC1C24 (1 μM) with AF488-αBcC176 (2 μM) at 37 °C in 50 mM phosphate buffer pH 7.4; early timepoints (0.25-0.5 h); diluted 1:1000, CLIC1 held by an anti-6X His-tag antibody. Conditions: scale: αBc subunits per CLIC1 subunit.

For assay [3] the target is unchanged. Description: two-colour single-molecule TIRF colocalisation with photobleaching step analysis; AF647-CLIC1C24 (1 μM) with AF488-αBcC176 (2 μM) at 37 °C in 50 mM phosphate buffer pH 7.4; later timepoints (1-10 h); diluted 1:1000, CLIC1 held by an anti-6X His-tag antibody; with or without cross-linking before dilution.
Assay [4] concerns the target AF555-CLIC1C24 (CLIC1 W23F, C59A, C89A, C178A, C191A, C223A, labelled with Alexa Fluor 555 at C24) (UniProt O00299). Description: FRET or BRET; single-molecule FRET by TIRF microscopy; AF555-CLIC1C24 (1 μM) with AF647-αBcC176 (2 μM) for 20 h at 37 °C in 50 mM phosphate buffer pH 7.4, diluted 1:1000, CLIC1 held on the coverslip by an anti-6X His-tag antibody; imaged at about 20 °C.

With “AF488-αBc_(C176) (human alphaB-crystallin with an additional C-terminal cysteine, labelled with Alexa Fluor 488) (natural protein)”, the stoichiometry N is under 10 subunits in assay [1] and 1 in assay [2]. For the same substance, the percent of CLIC1C24 colocalized with αBcC176 (maximum, after 4 h) in assay [3] is 50%.
Turning to “AF647-αBc_(C176) (human alphaB-crystallin with an additional C-terminal cysteine, labelled with Alexa Fluor 647) (natural protein)”, in assay [4], the FRET efficiency (E) was 0.8 to 1.
